Experiments:
[1] = target: T1, mouse CD137 ligand on DO11.10 cells (mouse, UniProt P41274 1-309); experiment: flow cytometry, detected with anti mouse Fc antibody
T1 construct: whole, on cells
T1 sequence (looked up): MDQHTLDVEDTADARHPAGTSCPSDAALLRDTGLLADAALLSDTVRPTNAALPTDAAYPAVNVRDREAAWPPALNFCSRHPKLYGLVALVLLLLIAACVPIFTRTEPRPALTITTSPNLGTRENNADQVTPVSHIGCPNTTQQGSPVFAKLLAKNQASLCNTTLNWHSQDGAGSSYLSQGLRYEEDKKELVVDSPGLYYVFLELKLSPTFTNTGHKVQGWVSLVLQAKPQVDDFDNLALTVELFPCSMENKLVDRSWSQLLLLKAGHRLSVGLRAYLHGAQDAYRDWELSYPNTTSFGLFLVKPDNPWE
Procedure: Cells were incubated with the CD137 antigens for 1 hour, and then a fluorescently labelled anti mouse Fc fragment antibody was used to detect cell binding.

hCD137-Avi-His = target: T2, hCD137-Avi-His (human, UniProt Q07011 24-186, single biotin on the Avi tag in the biotinylated form); experiment: SPR, mAb2 captured by anti-human Fab, antigen in solution
T2 construct: Monomer; also called human monomeric CD137; human CD137-Avi-His
Procedure: (§1) Each mAb^2 was captured to approximately 150 RU by injecting a 3 µg/ml solution of mAb^2 diluted in HBS-EP+buffer (GE Healthcare #BR1006-69) for 60 seconds at 30 µl/min. Then different concentrations of human, cyno or mouse CD137 antigen (unbiotinylated human, cyno or mouse CD137-mFc-Avi or human CD137-Avi-His) in HBS-EP+buffer were flowed over the chip for 3 min at 60 µl/min and then allowed to dissociate for 10 minutes. After each antigen concentration the chip was regenerated by injecting 10 mM glycine pH 2.1 at a flow rate of 30 µl/min for 30 seconds. Buffer HBS-EP+ was injected before the highest concentration of antigen and after the lowest concentration of antigen for reference subtraction, and one of the concentrations at random was repeated twice. The binding kinetics were fit with a 1:1 Langmuir model to generate equilibrium binding constants (K_D) for each sample. Data analysis was performed with BiaEvaluation software version 3.2.

hCD137-mFc-Avi = target: T3, hCD137-mFc-Avi (human; mouse, UniProt Q07011 24-186, one biotin on each Avi tag in the biotinylated form); experiment: as above
T3 construct: also called human dimeric CD137; human CD137-mFc-Avi
Procedure: as §1

cCD137-mFc-Avi = target: T4, cCD137-mFc-Avi (cynomolgus; mouse, one biotin on each Avi tag in the biotinylated form); experiment: as above
T4 construct: also called cynomolgus dimeric CD137; cyno CD137-mFc-Avi
T4 chain: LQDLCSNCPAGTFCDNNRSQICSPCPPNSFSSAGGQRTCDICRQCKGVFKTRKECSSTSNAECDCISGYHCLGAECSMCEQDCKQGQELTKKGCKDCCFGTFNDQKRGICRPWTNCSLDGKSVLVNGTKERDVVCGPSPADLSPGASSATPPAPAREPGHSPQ
Procedure: as §1

[2] = target: human CD137 expressed on cells (human, UniProt Q07011 24-255); experiment: cell-based or functional assay
human OX40 = target: T5, human OX40 (human, UniProt P43489 29-216); experiment: SPR, receptor amine-coupled ~1000 RU
T5 sequence (looked up): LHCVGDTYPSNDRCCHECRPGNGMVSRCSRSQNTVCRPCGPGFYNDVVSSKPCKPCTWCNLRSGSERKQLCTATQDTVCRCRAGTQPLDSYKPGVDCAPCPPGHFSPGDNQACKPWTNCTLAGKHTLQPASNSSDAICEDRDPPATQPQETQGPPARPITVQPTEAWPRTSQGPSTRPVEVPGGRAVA
Procedure: (§2) The specificity of the anti-human CD137 Fcabs for human CD137 compared to other related TNFSFR family members was tested. 8 of the Fcabs were tested in mock mAb^2 (HelD1.3) format and measured by SPR in a Biacore T200 (GE Healthcare) by testing for binding to other human TNFRSF receptors: CD40, OX40 and GITR. Amine coupling (amine coupling kit, GE Healthcare, BR-1000-50) was used to coat human CD40, GITR and OX40 to approximately 1000 RU in Biacore CM5 chips (GE Healthcare, cat no 29149603). […] The chip was regenerated by injection of 10 mM glycine pH 2.5 for 12 s at 30 µl/min. Antibodies specific to the different TNFRSF members were used as positive controls to verify Biacore chip coating. Data was double reference subtracted and analysed using BIAevaluation 3.2 software.

human CD40 = human CD40 (human, UniProt P25942 21-193); experiment: SPR, receptor amine-coupled ~1000 RU
Procedure: as §2

human GITR = target: T6, human GITR (human, UniProt Q9Y5U5 26-161, limits assumed); experiment: SPR, receptor amine-coupled ~1000 RU
T6 sequence (looked up): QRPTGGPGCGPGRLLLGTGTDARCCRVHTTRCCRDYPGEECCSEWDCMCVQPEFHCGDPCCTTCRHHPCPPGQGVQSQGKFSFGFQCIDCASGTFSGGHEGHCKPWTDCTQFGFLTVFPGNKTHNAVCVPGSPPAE
Procedure: as §2

[3] = target: mouse CD137 expressed on cells (mouse, UniProt P20334 24-256); experiment: cell-based or functional assay
mouse CD40 = mouse CD40 (mouse, UniProt P27512 24-193, limits assumed, chemically biotinylated (EZ-Link Sulfo-NHS-SS-Biotin)); experiment: BLI (Octet), biotinylated receptor on streptavidin sensors
Procedure: (§3) The specificity of the anti-mouse CD137 Fcabs for mouse CD137 were tested in HeID1.3 "mock" mAb² format and measured by BLI in an Octet QKe system by testing for binding of the Fcabs to other mouse TNFRSF receptors (CD40, OX40, GITR). Streptavidin biosensors (PALL ForteBio 18-5021) to coat 10 ng/μl mouse CD40, GITR, OX40 receptors (all obtained from R&D Systems and biotinylated using an EZ-Link Sulfo-NHS-SS-Biotin kit from Thermoscientific #21328). Anti-mouse CD137 Fcabs in mock mAb² format were diluted 1:1 in kinetic buffer (PALL 18-1092) to a final concentration of at least 1 μM. Antigen-coated sensors were dipped into the mAb² solutions for 180 seconds followed by 180 seconds in 1× kinetic buffer. Antibodies for each of the TNFRSF receptors were used as positive controls.

mouse GITR = target: T7, mouse GITR (mouse, UniProt O35714 20-153, limits assumed, chemically biotinylated (EZ-Link Sulfo-NHS-SS-Biotin)); experiment: as above
T7 sequence (looked up): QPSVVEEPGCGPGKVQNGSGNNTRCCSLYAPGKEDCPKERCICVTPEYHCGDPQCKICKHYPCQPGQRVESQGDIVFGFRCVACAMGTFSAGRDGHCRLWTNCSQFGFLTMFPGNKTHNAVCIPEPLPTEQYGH
Procedure: as §3

T2 sequence (Q07011 24-186): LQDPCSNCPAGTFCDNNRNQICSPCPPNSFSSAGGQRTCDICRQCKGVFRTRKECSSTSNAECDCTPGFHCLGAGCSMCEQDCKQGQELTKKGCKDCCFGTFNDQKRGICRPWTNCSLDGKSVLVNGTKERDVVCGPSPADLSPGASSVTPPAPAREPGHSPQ
T3 sequence (Q07011 24-186): as above
Chain of human CD40 (P25942 21-193 limits assumed): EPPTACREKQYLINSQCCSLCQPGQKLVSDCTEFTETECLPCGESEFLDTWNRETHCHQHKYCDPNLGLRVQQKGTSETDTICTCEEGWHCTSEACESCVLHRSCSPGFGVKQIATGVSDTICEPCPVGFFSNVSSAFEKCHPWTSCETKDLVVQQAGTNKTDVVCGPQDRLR
Chain of human CD137 expressed on cells (Q07011 24-255): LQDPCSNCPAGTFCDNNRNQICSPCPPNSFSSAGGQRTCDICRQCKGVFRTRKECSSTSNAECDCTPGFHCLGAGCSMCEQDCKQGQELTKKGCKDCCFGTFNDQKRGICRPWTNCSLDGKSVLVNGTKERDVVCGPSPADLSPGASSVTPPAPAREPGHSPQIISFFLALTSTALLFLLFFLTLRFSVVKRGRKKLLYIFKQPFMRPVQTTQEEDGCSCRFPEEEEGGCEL
Chain of mouse CD40 (P27512 24-193 limits assumed): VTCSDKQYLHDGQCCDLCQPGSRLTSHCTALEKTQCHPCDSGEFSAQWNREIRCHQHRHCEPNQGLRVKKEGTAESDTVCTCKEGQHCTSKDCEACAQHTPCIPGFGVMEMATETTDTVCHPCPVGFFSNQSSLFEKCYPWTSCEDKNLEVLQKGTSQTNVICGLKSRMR

B1: mCD137-mFc-Avi (Fc fusion, not shown: a dimerising Fc or GST; small tags and cut ends)
chain: VQNSCDNCQPGTFCRKYNPVCKSCPPSTFSSIGGQPNCNICRVCAGYFRFKKFCSSTHNAECECIEGFHCLGPQCTRCEKDCRPGQELTKQGCKTCSLGTFNDQNGTGVCRPWTNCSLDGRSVLKTGTTEKDVVCGPPVVSFSPSTTISVTPEGGPGGHSLQVL
modifications: one biotin on each Avi tag in the biotinylated form
notes: also called mouse dimeric CD137; mouse CD137-mFc-Avi
Question: Does B1 bind [1]?
Answer: binds

B2: FS22-172-003/HelD1.3 (bispecific antibody, human IgG1, kappa, L234A L235A)
heavy: QVQLQESGPGLVRPSQTLSLTCTVSGSTFSGYGVNWVRQPPGRGLEWIGMIWGDGNTDYNSALKSRVTMLVDTSKNQFSLRLSSVTAADTAVYYCARERDYRLDYWGQGSLVTVSSASTKGPSVFPLAPSSKSTSGGTAALGCLVKDYFPEPVTVSWNSGALTSGVHTFPAVLQSSGLYSLSSVVTVPSSSLGTQTYICNVNHKPSNTKVDKKVEPKSCDKTHTCPPCPAPEAAGGPSVFLFPPKPKDTLMISRTPEVTCVVVDVSHEDPEVKFNWYVDGVEVHNAKTKPREEQYNSTYRVVSVLTVLHQDWLNGKEYKCKVSNKALPAPIEKTISKAKGQPREPQVYTLPPSRDELPYIIPPYNQVSLTCLVKGFYPSDIAVEWESNGQPENNYKTTPPVLDSDGSFFLYSKLTVGADRWLEGNVFSCSVMHEALHNHYTQKSLSLSPG
light: DIQMTQSPASLSASVGETVTITCRASGNIHNYLAWYQQKQGKSPQLLVYNAKTLADGVPSRFSGSGSGTQYSLKINSLQPEDFGSYYCQHFWSTPRTFGGGTKLEIKRTVAAPSVFIFPPSDEQLKSGTASVVCLLNNFYPREAKVQWKVDNALQSGNSQESVTEQDSKDSTYSLSSTLTLSKADYEKHKVYACEVTHQGLSSPVTKSFNRGEC
notes: IgG1
Question: Which results are given for B2?
Answer: human monomeric CD137 KD fold difference relative to human dimeric KD (hCD137-Avi-His): > 200 fold; Kd (hCD137-mFc-Avi): 1.5 nM; Kd (cCD137-mFc-Avi): 1.3 nM; NF-κB luciferase reporter EC50, HEK.FRT.luc.hCD137 cells, crosslinked with Protein L (+XL) [2]: 32.6 nM; binding result (human OX40): no binding (tested: 1 µM); binding result (human CD40): no binding (tested: 1 µM); binding result (human GITR): no binding (tested: 1 µM)

B3: FS22m-063 in mock mAb^2 (HelD1.3) format (bispecific antibody, human IgG1, kappa, L234A L235A)
heavy: QVQLQESGPGLVRPSQTLSLTCTVSGSTFSGYGVNWVRQPPGRGLEWIGMIWGDGNTDYNSALKSRVTMLVDTSKNQFSLRLSSVTAADTAVYYCARERDYRLDYWGQGSLVTVSSASTKGPSVFPLAPSSKSTSGGTAALGCLVKDYFPEPVTVSWNSGALTSGVHTFPAVLQSSGLYSLSSVVTVPSSSLGTQTYICNVNHKPSNTKVDKKVEPKSCDKTHTCPPCPAPEAAGGPSVFLFPPKPKDTLMISRTPEVTCVVVDVSHEDPEVKFNWYVDGVEVHNAKTKPREEQYNSTYRVVSVLTVLHQDWLNGKEYKCKVSNKALPAPIEKTISKAKGQPREPQVYTLPPSRDEPYWSYVSLTCLVKGFYPSDIAVEWESNGQPENNYKTTPPVLDSDGSFFLYSKLTVMNYRWELGNVFSCSVMHEALHNHYTQKSLSLSPG
light: DIQMTQSPASLSASVGETVTITCRASGNIHNYLAWYQQKQGKSPQLLVYNAKTLADGVPSRFSGSGSGTQYSLKINSLQPEDFGSYYCQHFWSTPRTFGGGTKLEIKRTVAAPSVFIFPPSDEQLKSGTASVVCLLNNFYPREAKVQWKVDNALQSGNSQESVTEQDSKDSTYSLSSTLTLSKADYEKHKVYACEVTHQGLSSPVTKSFNRGEC
notes: The entries are those of FS22m-063-AA/HelD1.3 (with LALA); also called FS22m-063-AA/HelD1.3; FS22m-063/HeID1.3
Question: For B3, which “NF-κB luciferase reporter EC50, HEK.FRT.luc.mCD137 cells, crosslinked with Protein L” value [3] is on record?
Answer: 1.44 nM

Question: And the “NF-κB luciferase reporter, fold-change in activity upon Protein L crosslinking” value [3]?
Answer: 27 fold

Question: Does B3 bind (mouse CD40)?
Answer: no binding (tested: at least 1 µM)

Question: Does B3 bind (mouse GITR)?
Answer: no binding (tested: at least 1 µM)

Reference: patent US12319739 (F STAR DELTA, dated 2025)
